Biological target: MKP-3, endogenous in mouse liver (mouse (endogenous in C57BL/6 liver)) (UniProt Q9DBB1)
Assay: co-IP; liver lysates of C57BL/6 mice injected with adenoviruses (GFP or FOXO1 3A, plus shGFP or shMKP-3); MKP-3 immunoprecipitated with MKP-3 antibody-bound Exactra D matrix; western blot for FOXO1, quantified

Chain of UniProt Q9DBB1 (Q9DBB1 whole entry): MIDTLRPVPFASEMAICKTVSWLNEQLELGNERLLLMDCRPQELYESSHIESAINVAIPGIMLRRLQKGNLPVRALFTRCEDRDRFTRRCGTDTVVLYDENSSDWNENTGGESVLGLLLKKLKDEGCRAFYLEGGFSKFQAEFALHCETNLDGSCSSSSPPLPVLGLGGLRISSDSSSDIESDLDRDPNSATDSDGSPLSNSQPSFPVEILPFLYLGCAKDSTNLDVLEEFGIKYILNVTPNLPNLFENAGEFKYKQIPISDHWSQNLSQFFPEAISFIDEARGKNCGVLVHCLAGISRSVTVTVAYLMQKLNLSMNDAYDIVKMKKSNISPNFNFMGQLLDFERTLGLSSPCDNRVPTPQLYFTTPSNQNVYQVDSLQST

fold of FOXO1/FOXO1 3A protein associated with MKP-3 compared to GFP control: 7.9 fold
Substance: FOXO1 3A (Akt phosphorylation resistant FOXO1 mutant), over-expressed in mouse liver (from UniProt Q9R1E0 1-652) (natural protein)

From publication PMC3405053
